Results taken from paper doi:10.1101/2019.12.17.878660 (bioRxiv, 2019).

Target: T1, SurA (E. coli, UniProt P0ABZ6 21-428)
T1 sequence: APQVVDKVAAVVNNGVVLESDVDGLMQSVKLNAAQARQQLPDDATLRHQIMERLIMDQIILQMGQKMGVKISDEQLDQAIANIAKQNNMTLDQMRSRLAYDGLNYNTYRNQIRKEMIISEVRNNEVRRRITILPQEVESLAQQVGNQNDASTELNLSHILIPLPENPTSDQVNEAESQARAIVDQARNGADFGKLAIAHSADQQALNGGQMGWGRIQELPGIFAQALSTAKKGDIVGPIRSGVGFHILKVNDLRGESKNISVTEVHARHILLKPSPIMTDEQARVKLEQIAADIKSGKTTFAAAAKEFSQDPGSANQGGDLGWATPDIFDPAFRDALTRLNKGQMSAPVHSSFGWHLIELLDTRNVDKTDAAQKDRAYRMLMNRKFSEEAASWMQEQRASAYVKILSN
Test: cross-linking

binding result: binds
B1: uOmpX (natural protein, E. coli, UniProt P0A917 24-171, looked up)
chain: ATSTVTGGYAQSDAQGQMNKMGGFNLKYRYEEDNSPLGVIGSFTYTEKSRTASSGDYNKNQYYGITAGPAYRINDWASIYGVVGVGYGKFQTTEYPTYKHDTSDYGFSYGAGLQFNPMENVALDFSYEQSRIRSVDVGTWIAGVGYRF
